Source: patent publication US20230044381A1 (GUANGDONG FEIPENG PHARMACEUTICAL, published 2023)

T1: Human ICOS-hFc (human, UniProt Q9Y6W8 21-140)
T1 construct: Bought (ACRO); also called ICOS (ACRO)
T1 sequence (looked up): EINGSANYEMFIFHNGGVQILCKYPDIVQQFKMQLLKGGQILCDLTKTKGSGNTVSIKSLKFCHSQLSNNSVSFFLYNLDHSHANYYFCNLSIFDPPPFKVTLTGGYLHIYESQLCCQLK

T2: Human CTLA4-hFc (human, UniProt P16410 37-162)
T2 construct: Bought (ACRO); also called CTLA-4 (ACRO)
T2 sequence (looked up): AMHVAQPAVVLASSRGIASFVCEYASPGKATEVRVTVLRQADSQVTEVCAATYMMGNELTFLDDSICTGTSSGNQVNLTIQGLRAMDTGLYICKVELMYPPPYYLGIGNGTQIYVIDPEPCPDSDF

T3: mouse PD1 on CHO cells (CHO-mousePD1) (mouse, UniProt Q02242 25-288)
T3 construct: whole, on cells; also called CHO-mPD1
T3 sequence (looked up): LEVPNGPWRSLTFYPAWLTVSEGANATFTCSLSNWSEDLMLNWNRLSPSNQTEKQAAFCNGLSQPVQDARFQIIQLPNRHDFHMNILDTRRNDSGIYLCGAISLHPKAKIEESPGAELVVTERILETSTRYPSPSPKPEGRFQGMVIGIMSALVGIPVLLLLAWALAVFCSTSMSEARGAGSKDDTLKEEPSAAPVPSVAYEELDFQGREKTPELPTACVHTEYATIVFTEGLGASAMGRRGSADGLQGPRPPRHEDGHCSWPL


Columns and labels:
Human ICOS-hFc [1] = molecular target: T1, Human ICOS-hFc; test: ELISA, antigen coated at 1 µg/ml
Protocol: (§1) To verify the specificity of the antibody binding to PD-1, the binding assay of anti-PD-1 mouse monoclonal antibody with four different CD28 family member proteins was conducted. […] Anti-mouse IgG coupled with peroxidase (HRP) was used as a secondary antibody (Sigma). The color was developed by TMB, and after reaction termination, the absorbance was read by a microplate reader.

Human CTLA4-hFc [2] = molecular target: T2, Human CTLA4-hFc; test: ELISA, antigen coated at 1 µg/ml
Protocol: as §1

Human CD28-hFc [3] = molecular target: T4, Human CD28-hFc (human, UniProt P10747 19-152); test: ELISA, antigen coated at 1 µg/ml
T4 construct: Bought (ACRO); also called CD28 (ACRO)
T4 sequence (P10747 19-152): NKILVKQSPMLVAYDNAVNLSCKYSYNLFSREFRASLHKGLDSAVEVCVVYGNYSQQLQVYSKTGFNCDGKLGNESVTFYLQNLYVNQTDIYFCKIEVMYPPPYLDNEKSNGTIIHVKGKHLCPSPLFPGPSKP
Protocol: as §1

[4] = molecular target: T3, mouse PD1 on CHO cells (CHO-mousePD1); test: flow cytometry on CHO-mousePD1 cells
Protocol: (§2) In order to evaluate binding of the anti-PD-1 mouse monoclonal antibody to CHO-hPD1, 2×10⁵ CHO-hPD1 cells and the anti-PD-1 mouse monoclonal antibody that diluted in a concentration gradient (the initial concentration was […], 3-fold serial dilution) were added to a 96-well plate. then it was incubated at 4° C. for 30 minutes. After the cells were washed once with a buffer (PBS containing 3% bovine serum albumin (BSA)), PE-labeled anti-mouse IgG(Fc) Ab (Biolegend) fluorescent secondary antibody was added, it was incubated at 4° C. for another 30 minutes. the cells were washed once with the buffer and resuspended in PBS, and then cell suspension was analyzed through flow cytometry by CytoFlex (Beckman flow cytometer), the amount of the antibody bound to the cells was measured according to the mean fluorescence intensity (MFI); the same method was used to evaluate binding of anti-PD-1 mouse monoclonal antibody to a CHO-cyno cell, and a CHO-mousePD1 (sometimes abbreviated as “CHO-mPD1” in the present invention) cell.

[5] = molecular target: T5, human PD-1 on the cell surface (CHO-hPD1 cells; PHA-activated human PBMC) (human, UniProt Q15116 25-288); test: flow cytometry on CHO-hPD1 cells
T5 construct: whole, on cells; the assay field tells which; also called CHO-PD1
T5 sequence (Q15116 25-288): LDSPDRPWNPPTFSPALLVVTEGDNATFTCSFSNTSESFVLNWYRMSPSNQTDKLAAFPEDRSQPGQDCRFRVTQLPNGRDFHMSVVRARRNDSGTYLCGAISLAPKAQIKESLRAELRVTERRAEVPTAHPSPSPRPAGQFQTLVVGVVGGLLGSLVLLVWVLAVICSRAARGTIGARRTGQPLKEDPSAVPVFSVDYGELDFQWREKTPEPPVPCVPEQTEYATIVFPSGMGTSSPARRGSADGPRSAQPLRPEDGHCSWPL
Protocol: as §2

[6] = molecular target: T6, monkey PD1 on CHO cells (CHO-cynoPD1) (monkey); test: flow cytometry on CHO-cynoPD1 cells
T6 construct: whole, on cells
Protocol: as §2

[7] = molecular target: T5, human PD-1 on the cell surface …; test: flow cytometry on PHA-activated human PBMC
Protocol: After PBMC was obtained from fresh human peripheral blood by a lymphatic separation fluid gradient centrifugation method, the density was adjusted to 1×10⁶ cells/ml and then inoculated into T75. At the same time, PHA-L (Sigma) at a final concentration of 1 μg/ml was added to stimulate lymphocyte proliferation. After standing in an incubator supplied with 37° C. and 5% CO₂ for 3 days, cell suspension was taken out and centrifuged to remove the supernatant. Cells were resuspended in a buffer (PBS containing 3% BSA), and added into a 96-well U-shaped plate at a density of 2*10⁵ cells/well. And then the anti-PD1 antibody that prepared for a total of 10 concentration gradients (started from 30 μg/ml, diluted in a 3-fold gradient) was added. After incubation at 4° C. for 30 minutes, the plate was centrifuged at 300 g for 5 minutes, cells were washed once with the buffer, A PE-labeled goat anti-human IgG fluorescent antibody (Biolegend) was added, and incubated at 4° C. for 30 minutes; after incubation, the cells were washed once by centrifugation resuspended in PBS, and analyzed by a CytoFlex flow cytometer, to detect the amount of the antibody bound to PBMC.

Human ICOS-hFc [8] = molecular target: T1, Human ICOS-hFc; test: ELISA, antigen coated at 1 µg/ml, antibody 10 µg/ml
Protocol: as §1

Human CTLA4-hFc [9] = molecular target: T2, Human CTLA4-hFc; test: as above
Protocol: as §1

Human PD-1-hFc = molecular target: T7, Human PD-1-hFc (human, UniProt Q15116 25-167); test: as above
T7 construct: Bought (ACRO); also called PD-1 (ACRO)
T7 sequence (Q15116 25-167): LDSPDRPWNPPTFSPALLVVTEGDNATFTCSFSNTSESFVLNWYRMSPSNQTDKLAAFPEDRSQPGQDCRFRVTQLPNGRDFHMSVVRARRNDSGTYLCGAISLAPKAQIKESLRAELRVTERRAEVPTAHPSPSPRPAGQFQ
Protocol: as §1

Human CD28-hFc [10] = molecular target: T4, Human CD28-hFc; test: as above
Protocol: as §1

[11] = molecular target: T8, PD-1-his (ACRO) recombinant protein (UniProt Q15116 25-167); test: BLI (ForteBio Octet), PD-1-his loaded on HIS1K sensor, antibody in solution
T8 construct: Bought (ACRO); loaded on a HIS1K biosensor
T8 sequence (Q15116 25-167 limits assumed): as the sequence (Q15116 25-167) above

[12] = molecular target: T5, human PD-1 on the cell surface …; test: flow cytometry, blocking of PD-L1-hFc (3 µg/ml) on CHO-hPD1 cells, mode 1 (ligand added first)
Protocol: (§3) The ability of the anti-PD-1 mouse monoclonal antibody to block the binding of the ligand to CHO-hPD1 cells was analyzed by a flow cytometer.
(§4) The plate was centrifuged at 300 g for 5 minutes, cells were washed once with a buffer, a PE-labeled goat anti-human IgG fluorescent antibody (Biolegend) was added, and incubated at 4° C. for 30 minutes. After the cells were washed once by centrifugation, the cells were resuspended in PBS, and then analyzed by a Cyto Flex flow cytometer, to detect the amount of the ligand protein bound to the cells, and the IC₅₀ value of the PD-1 antibody blocking was calculated.

[13] = molecular target: T5, human PD-1 on the cell surface …; test: flow cytometry, blocking of PD-L2-hFc (3 µg/ml) on CHO-hPD1 cells, mode 1 (ligand added first)
Protocol: as §3, §4

[14] = molecular target: T5, human PD-1 on the cell surface …; test: flow cytometry, blocking of PD-L1-hFc (3 µg/ml) on CHO-hPD1 cells, mode 2 (antibody added first)
Protocol: as §3, §4

[15] = molecular target: T5, human PD-1 on the cell surface …; test: flow cytometry, blocking of PD-L2-hFc (3 µg/ml) on CHO-hPD1 cells, mode 2 (antibody added first)
Protocol: as §3, §4

| binding result (Human ICOS-hFc [1]) | binding result (Human CTLA4-hFc [2]) | binding result (Human CD28-hFc [3]) | binding result [4] | EC50 [5] [nM] | EC50 [6] [nM] | EC50 [7] [nM] | OD value (Human ICOS-hFc [8]) [OD] | OD value (Human CTLA4-hFc [9]) [OD] | OD value (Human PD-1-hFc) [OD] | OD value (Human CD28-hFc [10]) [OD] | Kd [11] [nM] | koff [11] [s⁻¹] | kon [11] [M⁻¹ s⁻¹] | IC50 [12] [nM] | IC50 [13] [nM] | IC50 [14] [nM] | IC50 [15] [nM] | Binder |
| --- | --- | --- | --- | --- | --- | --- | --- | --- | --- | --- | --- | --- | --- | --- | --- | --- | --- | --- |
| no binding (tested: 10 µg/ml) | no binding (tested: 10 µg/ml) | no binding (tested: 10 µg/ml) | no binding | 0.745 | 0.578 | 1.03 | 0.0636 | 0.129 | 2.37 | 0.0606 | < 0.001 | < 1e-07 | 468000 | 2.22 | 7.54 | 1.62 | 3.49 | PD-1-97-C2 (antibody, V domains shown, Mouse monoclonal antibody from a hybridoma; also called hybridoma clone 97) VH: EVKLVESGGGLVKPGGSLKLSCAASGFTFSSYGMSWIRQTPEKRLEWVATISGGGRDSYYPDSMKGRFAISRDNAKNNLYLQMSSLRSEDTALYYCTRQLGPAWFAYWGQGTLVTVSA VL: not shown |
| no binding (tested: 10 µg/ml) | no binding (tested: 10 µg/ml) | no binding (tested: 10 µg/ml) | no binding | 0.739 | 0.463 | 0.109 | 0.062 | 0.131 | 2.12 | 0.0625 | 0.0435 | 3.18e-05 | 732000 | 2.57 | 4.61 | 1.55 | 3.73 | PD-1-112-C2 (antibody, V domains shown, Mouse monoclonal antibody from a hybridoma; also called hybridoma clone 112) VH: QVQLQQPGAELVKPGASVKLSCKASGYTFTTYYMYWVKQRPGQGLEWIGGINPSNGGTNFNEKFKSKATLTVDKSSSTAYMQLSSLTSEDSAVYYCTRRDSNYDGGFDYWGQGTTLTVSS VL: DIVLTQSPASLAVSLGQRATISCRASKSVSTSGYSYMHWYQQKPGQPPKLLIYLAYHLESGVPARFSGSGSGTDFTLNIHPVEEEDAATYYCQHSWELPITFGSGTKLEIKR |
| no binding (tested: 10 µg/ml) | no binding (tested: 10 µg/ml) | no binding (tested: 10 µg/ml) | no binding | 0.583 | 0.576 | 0.02 | 0.076 | 0.146 | 2.46 | 0.0616 | < 0.001 | < 1e-07 | 771000 | 2.28 | 4.67 | 1.4 | 3.11 | PD-1-76-C2 (antibody, V domains shown, Mouse monoclonal antibody from a hybridoma; also called PD-76-C2; PD-1-76-02) VH: QIQLVQSGPELKKPGETVKISCKASGYTFTNYGMNWVKQAPGKGLKWMGWINTHTGEPTYADDFKGRFAFSLETSASTAYLQIKNLKNEDVATYFCTKEGEGIGFAYWGQGTLVTVSA VL: DVLMTQTPLSLPVSLGDQASISCRSSQSIVYSNGKTYLEWYLQKPGQSPKLLIYKVSNRFSGVPDRFSGSGSGTDFTLKISRVEAEDLGVYYCFQGSHVPNTFGGGTKLEIKR |
